Results published in patent US5668000A, “Mitochondrial P450” (Sumitomo Chemical Company, Limited, priority 1990, dated 1997).

Key:
[1] = 27-hydroxylation activity of THC in yeast subcellular fractions with added ADX, ADR and NADPH; format: biochemical; details: expressed in yeast
Protocol: (§1) A mitochondrial fraction prepared from the strain AH22/pAC25 and a microsomal fraction prepared from the strain AH22/pAMS25 were used for the measurement of hydroxylation activities. Subcellular fractionation was prepared from a transformant yeast strain according to the following method. About 4×10^10 cells were collected from a culture containing about 2×10^7 cells/ml, suspended in Zymolyase solution [10 mM Tris-HCl (pH 7.5), 2.0M sorbitol, 0.1 mM dithiothreitol, 0.1 mM EDTA, 0.3 mg/ml Zymolyase 100T] and incubated at 30° C. for 1 hour to prepare spheroplasts. The spheroplasts were suspended in a sonication buffer (10 mM Tris-HCl (pH 7.5), 0.65M sorbitol, 0.1 mM dithiothreitol, 0.1 mM EDTA, 1 μg/ml leupeptin, 1 μg/ml pepstatin) and homogenized with a Teflon homogenizer to disrupt the cells.
(§2) Precipitate 1 was removed by centrifugation at 3000×g for 5 minutes to give supernatant 1'. Precipitate 1 was resuspended in a sonication buffer, homogenized again, centrifuged at 3000×g for 5 minutes to give precipitate 1 (undisrupted cells and nucleus fractions) and supernatant 1". […]
(§3) Reaction systems (2 ml) shown in the following but NADPH were mixed and preincubated at 37° C. for 5 minutes, and reaction was initiated by the addition of NADPH. […] The benzene layer obtained by centrifugation was dried completely and analyzed by HPLC under the condition listed below. […]

[2] = expressed in yeast
[3] = 25-hydroxylation activity of 1α-hydroxyvitamin D3 in yeast subcellular fractions with added ADX, ADR and NADPH; format: biochemical; details: expressed in yeast
Protocol: as §1, §2, §3

B1: P450c25: rat liver mitochondrial P450c25 expressed in yeast (protein, UniProt P17178 33-533, looked up)
Sterol 26-hydroxylase, …: AIPAALRDHESTEGPGTGQDRPRLRSLAELPGPGTLRFLFQLFLRGYVLHLHELQALNKAKYGPMWTTTFGTRTNVNLASAPLLEQVMRQEGKYPIRDSMEQWKEHRDHKGLSYGIFITQGQQWYHLRHSLNQRMLKPAEAALYTDALNEVISDFIARLDQVRTESASGDQVPDVAHLLYHLALEAICYILFEKRVGCLEPSIPEDTATFIRSVGLMFKNSVYVTFLPKWSRPLLPFWKRYMNNWDNIFSFGEKMIHQKVQEIEAQLQAAGPDGVQVSGYLHFLLTKELLSPQETVGTFPELILAGVDTTSNTLTWALYHLSKNPEIQEALHKEVTGVVPFGKVPQNKDFAHMPLLKAVIKETLRLYPVVPTNSRIITEKETEINGFLFPKNTQFVLCHYVVSRDPSVFPEPESFQPHRWLRKREDDNSGIQHPFGSVPFGYGVRSCLGRRIAELEMQLLLSRLIQKYEVVLSPGMGEVKSVSRIVLVPSKKVSLRFLQRQ
exhibited hydroxylation activities: hydroxylation activity to THC [1] | hydroxylation activity to vitamin D3 [2] | hydroxylation activity to 1α-hydroxyvitamin D3 [3]
